Biological target: the molecule itself
Test: crystal structure

B1: full length HtpG from M. tuberculosis (HtpGMtb) (enzyme)
chain: MNAHVEQLEFQAEARQLLDLMVHSVYSNKDAFLRELISNASDALDKLRIEALRNKDLEVDTSDLHIEIDADKAARTLTVRDNGIGMAREEVVDLIGTLAKSGTAELRAQLREAKNAAASEELIGQFGIGFYSSFMVADKVQLLTRKAGESAATRWESSGEGTYTIESVEDAPQGTSVTLHLKPEDAEDDLHDYTSEWKIRNLVKKYSDFIAWPIRMDVERRTPASQEEGGEGGEETVTIETETLNSMKALWARPKEEVSEQEYKEFYKHVAHAWDDPLEIIAMKAEGTFEYQALLFIPSHAPFDLFDRDAHVGIQLYVKRVFIMGDCDQLMPEYLRFVKGVVDAQDMSLNVSREILQQDRQIKAIRRRLTKKVLSTIKDVQSSRPEDYRTFWTQFGRVLKEGLLSDIDNRETLLGISSFVSTYSEEEPTTLAEYVERMKDGQQQIFYATGETRQQLLKSPHLEAFKAKGYEVLLLTDPVDEVWVGMVPEFDGKPLQSVAKGEVDLSSEEDTSEAEREERQKEFADLLTWLQETLSDHVKEVRLSTRLTESPACLITDAFGMTPALARIYRASGQEVPVGKRILELNPSHPLVTGLRQAHQDRADDAEKSLAETAELLYGTALLAEGGALEDPARFAELLAERLARTL
B1: binds.
